US11421026B2, “Antibodies that bind human cannabinoid 1 (CB1) receptor” (BIRD ROCK BIO, Inc., priority 2015, dated 2022)

How the values were obtained:
[1] = system: CB1 receptor signaling, WIN55,212 induced ERK phosphorylation in Trex-CHO CB1 receptor cells; assay: ERK activation assay (western blot); assay type: cell-based, human; details: IgG 300 nM; WIN55,212 100 nM, 10 and 15 minutes
Method: (§1) Two days before the experiment, Trex-CHO CB1 receptor cells were seeded at 500,000 cells/well into 6-well plates. 1 μg/mL tetracycline was used to induce CB1 receptor expression after 24 hours. Cells were serum starved for at least two hours before the experiment. […] Cell lysates were harvested and the level of ERK activation was determined by western blot. Anti-ERK and Anti-phospho-specific ERK antibodies were obtained from Cell Signaling Inc.
as §1, with “Trex-CHO CB1 receptor-expressing cells were” for “Trex-CHO CB1 receptor cells were”

[2] = biological target: T1, human CB1 expressing TRex-CHO cells (Homo sapiens, UniProt P21554); assay type: cell-based; details: forskolin stimulated TRex-CHO CB1 cells
T1 construct: pcDNA4/TO native full length human CB1 receptor construct was transfected into tetracycline inducible system Trex-CHO and Trex-293 cells; expressed in transfected cells
T1 sequence (P21554 whole entry): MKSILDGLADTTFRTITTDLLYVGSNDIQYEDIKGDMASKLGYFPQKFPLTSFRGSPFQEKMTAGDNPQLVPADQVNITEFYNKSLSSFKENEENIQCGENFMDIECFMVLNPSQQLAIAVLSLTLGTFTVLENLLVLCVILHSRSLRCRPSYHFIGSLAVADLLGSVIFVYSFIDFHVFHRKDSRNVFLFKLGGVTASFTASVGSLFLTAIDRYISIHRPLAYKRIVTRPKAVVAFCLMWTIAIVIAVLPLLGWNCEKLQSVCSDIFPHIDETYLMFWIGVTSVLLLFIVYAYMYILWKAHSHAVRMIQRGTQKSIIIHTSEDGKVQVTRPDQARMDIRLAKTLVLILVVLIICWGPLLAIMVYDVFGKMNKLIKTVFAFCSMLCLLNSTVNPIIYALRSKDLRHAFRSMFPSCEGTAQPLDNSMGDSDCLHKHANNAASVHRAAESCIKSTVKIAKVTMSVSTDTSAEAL
Method: Data analysis was performed using GraphPad Prism software.
Data analysis was performed using GraphPad Prism.

[3] = biological target: T2, CB1 (TRex-CHO cells stably expressing human CB1) (Homo sapiens, UniProt P21554); assay type: cell-based
T2 construct: pcDNA4/TO native full length human CB1 receptor construct was transfected into tetracycline inducible system Trex-CHO and Trex-293 cells; expressed in transfected cells
T2 sequence (P21554 whole entry): as above
Method: A cAMP functional assay was performed to measure the antagonism of the antibodies. […] Data analysis was performed using GraphPad Prism.
Cell numbers, forskolin concentration and CP55,940 concentration were optimized according to the manufacturer's instructions. The cAMP antagonist functional assay was performed in white 384-well low volume plates (Greiner). […] Data analysis was performed using GraphPad Prism.
Data analysis was performed using GraphPad Prism. The mean±SD of IC50s and dissociation constants (Kd) shown were measured from at least 2 different experiments.
After 30 minutes incubation at 22° C., 5 μL cAMP-d2 and 5 μL anti-cAMP cryptate were added to the cells and incubated for 1 hour. […] Data analysis was performed using GraphPad Prism.

[4] = system: denatured CB1 protein (His tagged, N/C-termini truncated human CB1); assay: Western blot recognition of denatured CB1 protein; assay type: binding; details: 2 μg/mL
Method: A study was performed to examine whether PA13R3-P1C4 and its humanized variant antibodies recognize epitope(s) on denatured CB1 protein (His tagged, N/C-termini truncated CB1) by western blot analysis. Purified human CB1 protein (750 ng per lane) was mixed with SDS reducing buffer containing beta-mercaptoethanol (Double Helix). […] Membranes were blocked with 5% NFDM/PBS-T for one hour at 22° C. followed by immune-blotting with test antibodies (2 μg/mL) in 5% NFDM/PBS-T overnight at 4° C. Commercial mouse anti-His antibody and mouse anti-CB1 antibody (R&D Systems) were used as positive controls, and rabbit anti-CB1 antibody (Cayman), which recognizes a C-terminal region that was deleted from the recombinant CB1 protein used in this study, served as a negative control.
After overnight incubation, membranes were washed with 0.5% Tween-20 PBS (PBS-T) three times at 22° C. Secondary antibodies AP-conjugated anti-human IgG (1:5000) or anti-mouse IgG or anti-rabbit IgG in 5% NFDM/PBS-T were added to respective membranes and incubated for 1 hour at 22° C. Membranes were washed three times with PBS-T each for 5 minutes. After the final wash, signal was developed by incubating with NBT/BCIP substrate solution at 22° C. and the reaction was stopped by washing the membrane under running water.

[5] = biological target: T3, CB1 surface expression (CB1 TRex-CHO / TRex-293 cells) (Homo sapiens, UniProt P21554); assay type: cell-based; details: tetracycline induced, humanized variants
T3 construct: pcDNA4/TO native full length human CB1 receptor construct was transfected into tetracycline inducible system Trex-CHO and Trex-293 cells; expressed in transfected cells; tetracycline induced
T3 sequence (P21554 whole entry): as above

[6] = biological target: CB1 receptor (TRex-CHO CB1 cells) (Homo sapiens, UniProt P21554); assay: Flow cytometry binding of P1C4 Fab
Sequence of CB1 receptor (TRex-CHO CB1 cells) (P21554 whole entry): as above
Method: To determine PA13R3-P1C4 Fab binding affinity, full binding curves were generated on CB1 receptor by testing a range of concentrations using TRex-CHO cells stably transfected with tetracycline inducible CB1 expression construct by flow cytometry. Three-fold serial dilutions from 3 μM to 0.1 μM were prepared. FITC-conjugated anti-human antibody was used to detect PA13R3-P1C4 Fab.

Row | Molecule | block of WIN55,212 induced ERK phosphorylation [1] | effect on cAMP levels without exogenous agonist / mechanism [2] | effect on CP55,940-induced reduction in intracellular cAMP levels [3] | IC50 ([3]; all batches, 5 μM forskolin, 9 nM CP55,940, read-out: cAMP IC50 Mean ± SD) [nM] | recognition of denatured CB1 protein [4] | inhibition of WIN55,212 induced CB1 receptor internalization [5] | binding to TRex-CHO CB1 cells [6]
1 | 36E12B6C2: hybridoma-derived anti-CB1 mAb; HC variable SEQ ID NO: 18, LC variable SEQ ID NO: 22 (antibody, listed as Mus sp., V domains shown) VH: QVQLQQSGAELVRPGSSVKISCKASGYEFSYYWMNWVKQRPGQGLQWIGQIYPGDGDTNYNGKFKGKATLTADKSSSTAYMHLTSLTSEDSAVYFCARSGGNPFAFWGQGTLVTVSA VL: DIQMTQTSSSLSASLGDRVTFSCRASQDISNYLNWYQQKPDGTVKLLIYYTSRLHSGVTSRFRGSGSGTDYSLTISNLEQEDVATYFCQQGHTLPWSFGGGTKLEIK | blocked | inverse agonists | – | – | – | – | –
2 | PA13R3-P1C4: phage-derived chimeric anti-CB1 IgG; HC variable SEQ ID NO: 2, LC variable SEQ ID NO: 6 (antibody, V domains shown, PA13R3-P1C4 Heavy chain variable region; PA13R3-P1C4 Light chain variable region) VH: EVQLQQSGAELVRPGVSVKISCKASGYEFSYYWMNWVKQRPGQGLEWIGQIYPGDGETKYNGKFKGKATLTADKSSNTAYMQLSSLTSEDSAVYFCARSHGNYLPYWGQGTLVTVSA VL: DIVLTQSPAIMSASLGERVTMTCTASSSVSSSYLHWYQQKPGSSPKLWIYSTSNLASGVPARFSGSGSGTSYSLTISSMEAEDAATYYCHQYHRSPPTFGAGTKLELK | blocked | inverse agonists | dose-dependently inhibited | 138 ± 21 | could not recognize denatured and linearized CB1 protein | inhibited | –
3 | PA13R3-P1C4 Fab: Fab fragment of chimeric PA13R3-P1C4 (antibody, V domains shown) VH: EVQLQQSGAELVRPGVSVKISCKASGYEFSYYWMNWVKQRPGQGLEWIGQIYPGDGETKYNGKFKGKATLTADKSSNTAYMQLSSLTSEDSAVYFCARSHGNYLPYWGQGTLVTVSA VL: DIVLTQSPAIMSASLGERVTMTCTASSSVSSSYLHWYQQKPGSSPKLWIYSTSNLASGVPARFSGSGSGTSYSLTISSMEAEDAATYYCHQYHRSPPTFGAGTKLELK | – | – | – | – | – | – | dose dependently bound
